The target of assay [1] is T1, FOLR1 on FOLR1 expressing cells (IGROV1) (UniProt P15328 25-234, limits assumed).
T1 construct: whole, on cells; also called folate receptor 1
Kind of assay: flow cytometry on IGROV1 cells in human plasma/PBS, detection with SA-647; grade legend paragraph 454: 0 nM < A <= 100 nM.

Assay [2] has as its target T2, FOLR1-Fc-Avi (AcroBiosystems, F01-H82F9) (UniProt P15328 25-234, biotinylated (immobilised by streptavidin-biotin chemistry)).
T2 construct: Bought reagent; also called folate receptor 1
The assay can be described thus: SPR, Biacore 8K, FOLR1-Fc-Avi immobilised, single cycle kinetics, 1:1 model; grade legend paragraph 444: 0 nM < A <= 10 nM. As to the method:
For analysis of peptide binding, a Biacore 8K instrument was used utilizing either a SA chip or a CAP chip. FOLR1-Fc-Avi (AcroBiosystems, F01-H₈₂F9) was immobilized on the chip using streptavidin-biotin chemistry at 25° C. in PBS-P+ buffer (20 mM phosphate, 2.7 mM KCl, 137 mM NaCl, 0.05% Tween-20, pH 7.4) to a level of 500-2500 RU (dependent on the analyte molecular weight). A dilution series of peptides was prepared in this buffer with a final DMSO concentration of 1% with a top peptide concentration at 50 or 100 nM and 8 further 2-fold dilutions. The SPR analysis was run at 25° C. at a flow rate of 100 μL/min in PBS-P+ with 1% DMSO running buffer and with a 120 second association and 10,000 second dissociation using single cycle kinetics methodology. All data was analyzed using Biacore Insight Evaluation Software version 3.) Data was fitted using a Langmuir 1:1 binding model.
In general terms: In SPR one partner is held on a chip, and binding of the other changes the refractive index at the surface.

The target of a further assay is T3, Human Serum Albumin (human, UniProt P02768 25-609).
T3 construct: Immobilised on the HPLC column; also called HSA
Kind of assay: HSA-HPLC, immobilised HSA column, estimated from retention time; grade legend paragraph 440: 90% < A <= 100%. An excerpt:
HSA-HPLC method (measurement of drug protein binding by immobilized human serum albumin-HPLC). A 13-minute HPLC (Thermo Vanquish Horizon with Diode Array Detector) gradient method was used to determine the HSA (Human Serum Albumin) binding of novel compounds using a chemically bonded protein stationary phase (ChiralPAK HSA HPLC column, 50×4 mm). The HSA binding values were derived from the gradient retention times that were converted to the logarithm of the equilibrium constant using data from a calibration set of molecules. The % bound to plasma values for the calibrator compounds were converted to the linear free energy values using the following equation: LogK=log[% PPB/(101−% PPB)]. The logarithmic value of the gradient retention times from the experiment were plotted against the linearized values of the percent bound to plasma. The slope and the intercept were used to convert the retention times to linear free energy values (LogK), from which the estimated % protein binding was calculated using the following equation: % Binding=[(101·10^LogK)/(1+10^LogK)]. Aqueous mobile phase (A) was 50 mM ammonium acetate solution, ph7.4 and the organic mobile phase (B) was 2-propanol. The flow rate was set at 0.350mL/min and injection volume was 5 uL, with samples prepared at 0.5 mg/mL concentration in 50:50 mobile phase. The initial LC conditions were conducted at room temperature, set at 0% B and ramped to 50% B over 8.5 minutes, then held at 50% B for 1.5 minutes before going back to initial conditions and re-equilibrating the column for 2.5 minutes. Chromatograms were recorded at 280 nm by a diode array UV absorption detector.

Assay [3] deals with T4, PSMA on PSMA expressing cells (LnCap) (UniProt Q04609 1-750, limits assumed).
T4 construct: whole, on cells; also called prostate-specific membrane antigen
The assay can be described thus: flow cytometry on LnCap cells, biotinylated compound, detection with SA-A647; grade legend paragraph 460: 0 nM < A <= 100 nM.

Assay [4] deals with T5, His-Avi-PSMA (AcroBiosystems, PSA-H82Qb) (UniProt Q04609 44-750, biotinylated (immobilised by streptavidin-biotin chemistry)).
T5 construct: Bought reagent; also called prostate-specific membrane antigen
The assay can be described thus: SPR, Biacore 8K, His-Avi-PSMA immobilised, single cycle kinetics, 1:1 model; grade legend paragraph 447: 0 nM < A <= 10 nM. The protocol: For analysis of peptide binding, a Biacore 8K instrument was used utilizing a SA chip. His-Avi-PSMA (AcroBiosystems, PSA-H82Qb) was immobilized on the chip using streptavidin-biotin chemistry at 25° C. in HBS-P+ buffer (10 mM HEPES, 150 mM NaCl, 0.05% Tween-20, pH 7.4) to a level of 800-2200 RU (dependent on the analyte molecular weight). A dilution series of peptides was prepared in this buffer with a final DMSO concentration of 1% with a top peptide concentration between 10-100 nM and 8 further 2-fold dilutions. The SPR analysis was run at 25° C. at a flow rate of 100 μL/min in HBS-P+ with 1% DMSO running buffer and with a 120 second association and 10,000 second dissociation using single cycle kinetics methodology. All data was analyzed using Biacore Insight Evaluation Software version 3. Data was fitted using a Langmuir 1:1 binding model.

Assay [5] has as its target T6, Trop-2 on Trop-2 expressing cells (A431) (UniProt P09758 27-323, limits assumed).
T6 construct: whole, on cells; also called tumor-associated calcium signal transducer 2
T6 sequence (looked up): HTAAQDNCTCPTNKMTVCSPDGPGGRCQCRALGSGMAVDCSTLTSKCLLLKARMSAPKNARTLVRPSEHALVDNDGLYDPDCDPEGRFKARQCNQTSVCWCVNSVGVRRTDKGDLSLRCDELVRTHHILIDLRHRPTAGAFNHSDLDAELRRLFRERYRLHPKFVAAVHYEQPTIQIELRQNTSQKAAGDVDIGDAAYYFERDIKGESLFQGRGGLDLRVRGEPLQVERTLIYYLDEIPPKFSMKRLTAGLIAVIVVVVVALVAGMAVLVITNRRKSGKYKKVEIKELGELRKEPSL
The assay can be described thus: flow cytometry on A431 cells, procedure of the PSMA cell assay; grade legend paragraph 462: 0 nM < A <= 100 nM. (In flow cytometry, cells or beads pass a laser one at a time.)

Bridge positions count the residues as written; N and C are the ends. Square brackets hold non-standard residues; d marks the D form. Phe(3-Ph) = N[C@@H](Cc1cccc(-c2ccccc2)c1)C(=O)O; Bip = N[C@@H](Cc1ccc(-c2ccccc2)cc1)C(=O)O; Phe(3-Cl) = N[C@@H](Cc1cccc(Cl)c1)C(=O)O; NMeY = CN[C@@H](Cc1ccc(O)cc1)C(=O)O; NMeF = CN[C@@H](Cc1ccccc1)C(=O)O; Cba = N[C@@H](CC1CCC1)C(=O)O; Chg = N[C@H](C(=O)O)C1CCCCC1

T2 sequence (P15328 25-234 limits assumed): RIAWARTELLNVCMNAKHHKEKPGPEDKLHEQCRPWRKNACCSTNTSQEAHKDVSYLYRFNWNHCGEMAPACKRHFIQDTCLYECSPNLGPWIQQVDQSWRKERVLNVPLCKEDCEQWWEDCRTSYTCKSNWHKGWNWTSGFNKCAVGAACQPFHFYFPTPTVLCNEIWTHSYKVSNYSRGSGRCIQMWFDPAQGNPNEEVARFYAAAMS
T1 sequence (P15328 25-234 limits assumed): as above
T4 sequence (Q04609 whole entry): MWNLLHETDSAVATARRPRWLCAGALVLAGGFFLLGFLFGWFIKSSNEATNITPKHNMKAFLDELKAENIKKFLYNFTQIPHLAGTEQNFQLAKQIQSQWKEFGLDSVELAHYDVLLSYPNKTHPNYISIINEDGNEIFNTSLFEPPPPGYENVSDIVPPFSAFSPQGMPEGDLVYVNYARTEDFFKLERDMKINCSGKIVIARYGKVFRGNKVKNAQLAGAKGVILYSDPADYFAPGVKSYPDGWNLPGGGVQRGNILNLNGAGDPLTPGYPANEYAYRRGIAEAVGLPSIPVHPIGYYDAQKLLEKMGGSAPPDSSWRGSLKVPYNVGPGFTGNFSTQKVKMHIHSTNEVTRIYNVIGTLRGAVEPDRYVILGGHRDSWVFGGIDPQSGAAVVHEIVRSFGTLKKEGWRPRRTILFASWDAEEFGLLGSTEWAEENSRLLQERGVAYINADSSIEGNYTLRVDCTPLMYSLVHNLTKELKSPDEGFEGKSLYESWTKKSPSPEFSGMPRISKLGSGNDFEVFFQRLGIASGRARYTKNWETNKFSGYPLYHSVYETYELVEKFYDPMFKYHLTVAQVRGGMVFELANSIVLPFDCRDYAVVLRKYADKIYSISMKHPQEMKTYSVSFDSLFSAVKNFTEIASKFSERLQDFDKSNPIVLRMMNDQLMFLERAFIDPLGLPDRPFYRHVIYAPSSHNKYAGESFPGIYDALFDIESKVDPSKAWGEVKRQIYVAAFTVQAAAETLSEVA
T5 sequence (Q04609 44-750 limits assumed): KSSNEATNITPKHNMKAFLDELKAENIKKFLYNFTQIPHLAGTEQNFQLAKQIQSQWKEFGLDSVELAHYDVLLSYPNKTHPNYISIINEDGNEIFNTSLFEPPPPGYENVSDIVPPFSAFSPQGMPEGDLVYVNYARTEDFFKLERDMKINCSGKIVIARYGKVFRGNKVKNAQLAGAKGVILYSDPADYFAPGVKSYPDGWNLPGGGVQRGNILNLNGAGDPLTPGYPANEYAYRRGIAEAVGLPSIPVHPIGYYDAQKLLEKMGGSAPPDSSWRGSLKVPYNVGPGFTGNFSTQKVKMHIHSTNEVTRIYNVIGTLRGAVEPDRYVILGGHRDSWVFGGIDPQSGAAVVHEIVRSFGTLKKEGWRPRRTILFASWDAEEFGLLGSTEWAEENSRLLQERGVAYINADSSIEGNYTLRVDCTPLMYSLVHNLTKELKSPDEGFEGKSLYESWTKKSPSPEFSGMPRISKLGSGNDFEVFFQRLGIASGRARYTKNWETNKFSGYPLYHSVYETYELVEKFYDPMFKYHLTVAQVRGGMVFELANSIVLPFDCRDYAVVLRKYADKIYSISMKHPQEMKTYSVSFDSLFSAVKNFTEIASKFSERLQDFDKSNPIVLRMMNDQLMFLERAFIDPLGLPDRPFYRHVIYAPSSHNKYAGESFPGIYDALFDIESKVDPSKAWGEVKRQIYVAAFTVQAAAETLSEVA

B1: P-10 (peptide)
peptide: ARL[NMeF]DYDT[NMeY][NMeY]WYC-NH2
modifications: bridge N-13; not fully specified (N-terminus, bridges)
notes: The cell assay detects with SA-647, so a biotinylated form was used
For the molecule B1, in assay [1], the EC50 (commonly the concentration giving half of the maximal effect) was at most 100 nM. Besides, the dissociation constant (Kd) (usually the constant that tells how readily two partners part at equilibrium) in assay [2] is at most 10 nM. Also, the “% Bound to HSA at r.t.” value with Human Serum Albumin was over 90%.

B2: P-11 (peptide)
peptide: DR[Chg][NMeF]D[Phe(3-Cl)]DT[NMeY][NMeY]WYC-NH2
modifications: bridge N-13; not fully specified (N-terminus, bridges)
notes: as for B1
B2 gave an EC50 in assay [1] of at most 100 nM. The Kd in assay [2] was at most 10 nM. Besides, in the assay with Human Serum Albumin, the “% Bound to HSA at r.t.” value was over 90%.

B3: P-21 (peptide)
peptide: W[Phe(3-Ph)]DVDSD[Cba]W[Phe(3-Ph)]DC-NH2
modifications: bridge N-12; not fully specified (N-terminus, bridges)
As for B3, in assay [3], the EC50 was at most 100 nM. In addition, the “% Bound to HSA at r.t.” value with Human Serum Albumin was over 90%. In addition, in assay [4], the Kd was at most 10 nM.

B4: P-40 (peptide)
peptide: [dA]D[Bip]IYPA[Bip]SSES[NMeF]C-NH2
modifications: bridge N-14; not fully specified (N-terminus, bridges)
notes: The cell assay followed the procedure with biotinylated compounds
In turn, B4 yielded an EC50 in assay [5] of at most 100 nM. In addition, in the assay with Human Serum Albumin, the “% Bound to HSA at r.t.” value is over 90%.

B5: P-12 (peptide)
peptide: DR[Chg][NMeF]DYDT[NMeY][NMeY]WYC-NH2
modifications: bridge N-13; not fully specified (N-terminus, bridges)
B5: the dissociation constant (Kd) in assay [2] is at most 10 nM. Further, in the assay with Human Serum Albumin, the “% Bound to HSA at r.t.” value was over 90%.

(Values after patent US20230158179A1 (RAYZEBIO, published 2023).)
